# Assay results as given in IntAct's records for PubMed 28176834.
# B1: Tudor domain-containing protein 3 (Homo sapiens), Q9H7E2-3 (parent)
# chain: MAQVAGAALSQAGWYLSDEGIEACTSSPDKVNVNDIILIALNTDLRTIGKKFLPSDINSGKVEKLEGPCVLQIQKIRNVAAPKDNEESQAAPRMLRLQMTDGHISCTAVEFSYMSKISLNTPPGTKVKLSGIVDIKNGFLLLNDSNTTVLGGEVEHLIEKWELQRSLSKHNRSNIGTEGGPPPFVPFGQKCVSHVQVDSRELDRRKTLQVTMPVKPTNDNDEFEKQRTAAIAEVAKSKETKTFGGGGGGARSNLNMNAAGNRNREVLQKEKSTKSEGKHEGVYRELVDEKALKHITEMGFSKEASRQALMDNGNNLEAALNVLLTSNKQKPVMGPPLRGRGKGRGRIRSEDEEDLGNARPSAPSTLFDFLESKMGTLNVEEPKSQPQQLHQGQYRSSNTEQNGVKDNNHLRHPPRNDTRQPRNEKPPRFQRDSQNSKSVLEGSGLPRNRGSERPSTSSVSEVWAEDRIKCDRPYSRYDRTKDTSYPLGSQHSDGAFKKRDNSMQSRSGKGPSFAEAKENPLPQGSVDYNNQKRGKRESQTSIPDYFYDRKSQTINNEAFSGIKIEKHFNVNTDYQNPVRSNSFIGVPNGEVEMPLKGRRIGPIKPAGPVTAVPCDDKIFYNSGPKRRSGPIKPEKILESSIPMEYAKMWKPGDECFALYWEDNKFYRAEVEALHSSGMTAVVKFIDYGNYEEVLLSNIKPIQTEAWEEEGTYDQTLEFRRGGDGQPRRSTRPTQQFYQPPRARN
# partner: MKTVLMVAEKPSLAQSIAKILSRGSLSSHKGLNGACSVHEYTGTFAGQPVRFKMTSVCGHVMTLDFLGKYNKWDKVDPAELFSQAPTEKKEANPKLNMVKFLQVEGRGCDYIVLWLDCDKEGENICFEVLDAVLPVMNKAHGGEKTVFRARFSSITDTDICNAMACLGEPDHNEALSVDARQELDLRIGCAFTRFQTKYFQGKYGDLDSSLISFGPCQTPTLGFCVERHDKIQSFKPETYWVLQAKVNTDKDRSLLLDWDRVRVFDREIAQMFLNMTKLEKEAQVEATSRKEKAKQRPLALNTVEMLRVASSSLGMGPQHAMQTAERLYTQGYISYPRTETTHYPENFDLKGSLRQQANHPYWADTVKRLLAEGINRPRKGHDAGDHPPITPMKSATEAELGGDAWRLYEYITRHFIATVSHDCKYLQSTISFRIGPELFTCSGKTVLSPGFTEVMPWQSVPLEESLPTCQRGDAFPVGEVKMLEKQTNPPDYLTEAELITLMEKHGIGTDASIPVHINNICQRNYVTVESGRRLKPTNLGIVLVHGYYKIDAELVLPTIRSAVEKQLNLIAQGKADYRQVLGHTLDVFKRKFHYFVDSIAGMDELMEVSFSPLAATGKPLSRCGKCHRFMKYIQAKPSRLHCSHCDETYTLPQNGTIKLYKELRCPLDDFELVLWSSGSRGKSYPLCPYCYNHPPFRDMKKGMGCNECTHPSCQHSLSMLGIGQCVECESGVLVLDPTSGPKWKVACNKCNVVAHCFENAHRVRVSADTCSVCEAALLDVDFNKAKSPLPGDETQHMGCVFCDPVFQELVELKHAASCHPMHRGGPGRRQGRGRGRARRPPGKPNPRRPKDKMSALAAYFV
# B2: DNA topoisomerase 3-beta-1 (Homo sapiens), O95985 (parent)
# chain: B1 partner
# Variants of: B1
# Conditions: with top3b_human TOP3B, O95985
row,Variant,effect of a mutation on the interaction
1,R96M;F111Y,with no effect
2,R96M;V109M;F111Y,with no effect
3,P92S;M94S,disrupting interaction strength
4,A80S;A81Q;A90K;A91P;P92S,with no effect
5,V79S;P82S,decreasing interaction strength
6,V109M;F111Y;F139V,with no effect
7,R96M,with no effect
8,R96A,with no effect
9,L141S,with no effect
10,V109S;F111S,disrupting interaction strength
11,V79S,with no effect
12,R96M;F111Y;F139V,with no effect
13,F139V,with no effect
14,F139S,decreasing interaction strength
15,P92S,decreasing interaction strength
16,P82S,with no effect
17,V109S,disrupting interaction strength
18,V109M,with no effect
19,F139S;L141S,disrupting interaction strength
20,R96M;V109M;F111Y;F139V,decreasing interaction strength
21,M94S,disrupting interaction strength
22,R96M;F139V,with no effect
23,A80S;A81S,with no effect
24,R96M;V109M;F139V,with no effect
25,R96M;V109M,with no effect
26,V79S;A80S;A81S;P82S,decreasing interaction strength
27,F111Y,with no effect
28,F111S,with no effect

# Variants of: B2
# Conditions: with TDRD3, Q9H7E2-3
row,Variant,effect of a mutation on the interaction
1,D266A,with no effect
